Results from paper PMC12081870 (Communications Biology, 2025).
Values joined by “and” are separate entries in the source; they are usually repeats but may differ in a detail not shown here. Equal entries are not always repeated. Ends that are not written are not given here.

Legend:
[1] = test system: Las17-GFP and Arc15-mCherry; test: Dual-reporter lifetimes, Las17-GFP and Arc15-mCherry co-localisation; assay type: cell-based, Saccharomyces cerevisiae; parameters: lifetime, GFP alone / lifetime, GFP and RFP / lifetime, RFP: unit not given here; details: sheet Fig9E, individual endocytic patches, one per cell
Experimental: A size bar for each set of kymographs is shown on the upper right of each set. For (A) and (C) size bar is 100 nm and for B is 200 nm. Error bars are standard deviation. […] The site of interest is labelled in the first two time panels with a white arrow. Exposure 0.5 sec with 1 second time lapse. 120 s recorded. […] Error bars are standard deviation.
Individual spots were analysed for lifetimes and behaviours.
Yeast strains used in this study are listed in Supplementary table 2 and plasmids used in Supplementary table 1. Unless stated otherwise, cells were grown with rotary shaking at 30 °C in liquid YPD medium (1% yeast extract, 2% Bacto-peptone, 2% glucose supplemented with 40 μg/ml adenine) or in synthetic medium (0.67% yeast nitrogen base, 2% glucose) with appropriate supplements. […] DNA cassettes carrying mutations for integration were transformed into KAY1801. Mutant colonies were counter-selected on minimal medium, containing 0.005% uracil and 0.1% 5’-Fluoroorotic Acid (5-FOA; Melford laboratories). Allele exchange, in growing Ura3^-, 5-FOA resistant colonies, was confirmed by PCR and sequencing.
For live-cell imaging, cells expressing tagged proteins were visualised after growing to early log phase. Analysis was carried out at room temperature (22 °C). […] Images were taken simultaneously on separate scientific complementary metal oxide semiconductor (sCMOS) cameras (30 msec exposure). Seven 250 nm sections were acquired every 0.5 sec (241 time points). The stacks were then deconvolved and processed, using SoftWorx. Protein localisation and lifetime was analysed from those projections. Fiji software was used to assemble movies and kymographs, to track and record behaviour of individual spots. Graphs show mean ± SD. […] Where appropriate data was tested for normal distribution using Graphpad Prism software, and then subjected to the appropriate test as described in the methods for each experiment type.

[2] = test system: Las17 12mer peptides / GST-Sla1 SH3 domains; test: Peptide spot array (Celluspot) of Las17 12mers probed with GST-Sla1 SH3 domains; assay type: binding, Saccharomyces cerevisiae; details: GST-Sla1 SH3 domain on 12mer array, 2-residue offset, anti-GST HRP, chemiluminescence
Experimental: A Purified individual GST-tagged Sla1 SH3 domains were used to probe a Celluspot array consisting of a series of 12 amino acid peptides starting with residue 181, and subsequent peptides starting at two amino acid intervals, up to amino acid 540. Binding of GST-Sla1 SH3 to the array was identified by further probing of HRP-tagged anti-GST and subsequent visualisation using chemiluminescence. […] Error bars are standard error of mean.
They were incubated with GST fused SH3 domains of Sla1 or with GST alone, as described in ref.[57]. Membranes were probed with HRP tagged anti-GST, and the presence of SH3-GST fusion protein was detected with ECL chemiluminescent detection solution (Thermo Fisher Scientific).

[3] = test system: Las17-Arp2/3 mediated actin polymerisation; details: 15 nM Las17, 1 µM Sla1 SH3 domains, ref [13]; cited from earlier work
Text: In Sla1 the first two SH3 domains are immediately juxtaposed with no linker. There are then 236 residues before the third SH3 domain (Fig. 1A).

[4] = biological target: T1, Las17 PPR-N fragment (residues 300-422), wild type (S. cerevisiae, UniProt Q12446 300-422); test: BLI; Octet R2 (Sartorius); Octet NTA Biosensors or Octet GST Biosensors, which partner was loaded is not stated; repeated three times; the constant of SH3#1-3 is called apparent; details: both partners purified
T1 construct: Las17 (yeast WASP family protein, Las17/Bee1), S. cerevisiae, residues 300-422 (N-terminal half of the polyproline region, PPR-N); also called Las17(300-422); Las17 300-422; source: E. coli, purified (GST fusion on glutathione Sepharose, cleaved with PreScission Protease; a His-tagged form purified on a nickel column was also made)

[5] = biological target: T2, Sla1 SH3#1-2 tandem domains (aa 5-131) (S. cerevisiae, UniProt P32790 5-131, 15N-labelled (NMR only)); test: NMR titration; 15N-labelled Sla1 SH3 domains, 1H-15N HSQC; concentrated peptide stocks in the same buffer and pH added stepwise (0 to 8 equivalents shown); shift changes fitted to the standard quadratic equation; details: both partners purified
T2 construct: Sla1, S. cerevisiae, first two SH3 domains (juxtaposed, no linker), residues 5-131; also called Sla1 SH3 domains 1 and 2; tandem SH3#1&2 domain; source: E. coli, purified (GST fusion, cleaved with Prescission protease; His-tagged Sla1-SH3 domains were also made); 15N- or 15N,13C-labelled for NMR
T2 sequence (looked up): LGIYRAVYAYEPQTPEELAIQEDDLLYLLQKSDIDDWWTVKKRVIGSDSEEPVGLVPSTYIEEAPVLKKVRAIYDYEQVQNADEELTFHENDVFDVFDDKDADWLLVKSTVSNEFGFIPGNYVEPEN

[6] = Liposome co-sedimentation assay; assay type: binding; parameters: unit: %
Experimental: Liposome binding assays were carried out as described previously. To prepare liposomes 11 μl of a 25 mg/ml solution of Folch fraction-1 was dried under a nitrogen stream. They were washed in chloroform, dried under nitrogen, and further washed with diethyl ether to remove all traces of chloroform before being dried again. The dried lipid mixture was resuspended in 200 µl of buffer B (20 mM HEPES pH 7.2, 100 mM KCl, 2 mM MgCl2, 1 mM DTT) at 37 °C for 30 min with regular gentle agitation. Liposomes were then extruded 11 times through polycarbonate filters with 1.0 μm pores. For liposome binding assays 20 μM Sla1 (pre-spun at 313,000 × g for 15 min) was mixed with 20 μl liposomes in buffer B, (final volume 50 µl) and incubated at room temperature for 15 min. Liposomes and bound protein were pelleted by centrifugation at 250,000 × g for 15 min, and supernatants and pellets carefully separated. The pellets were resuspended in 50 µl buffer B and samples were analysed by SDS-PAGE. The proportion of protein in each sample was determined by densitometry of the Coomassie stained gels using a BioRad GelDoc. Replicate experiments were carried out with protein from different preparations. To normalise the data the amount of protein in the supernatant and pellet of each sample was added together to give a value for 100%, and then the % in either the supernatant or pellet alone was calculated. When liposomes were included in the pyrene actin assay they were prepared as described for liposome binding assays, but the dried lipid mixture was resuspended in 5×KME in place of liposome buffer. This was then used as a source of KME in the pyrene actin assay as well as a source of lipid. Mean ± SD is shown n = 6. Sîdák’s multiple comparisons test was carried out using Graphpad Prism software, **** denotes two tailed P value of < 0.0001.
Liposome binding studies: triplicate experiments were carried out with protein from different preparations. To normalise the data the amount of protein in the supernatant and pellet of each sample was added together to give a value for 100%, and then the % in either the supernatant or pellet alone was calculated. Mean ± SD is shown n = 6. Sîdák’s multiple comparisons test was carried out using Graphpad Prism software, **** denotes two tailed P value of < 0.0001.

[7] = biological target: Las17 PPR-N fragment (residues 300-422); test: Biolayer Interferometry (BLI), Sla1 SH3 domains to Las17 PPR-N; assay type: binding, Saccharomyces cerevisiae; details: Biolayer Interferometry, Octet R2, Las17 (aa 300-422); three repeats with newly prepared protein; read-out: binding affinity (Kd)
Text: To investigate binding characteristics of the SH3 domains further, Sla1 SH3 protein domains were purified. Three Sla1 SH3 single domains, tandem domains Sla1 SH3#1&2, Sla1 SH3#1&2 W108A (in which the W108A mutation prevents proline motif binding by SH3#2 but not SH3#1) and a fragment with all three SH3 domains were expressed recombinantly and purified. […] This outcome is in line with original research of Rodal and colleagues and with more recent studies of avidity developed by Williamson, which highlighted the importance of tandem binding SH3 domains[13],[27].
Biolayer Interferometry (BLI) assays were performed using an OctetⓇ R2 (Sartorius). Protein samples were placed into the wells of a polystyrene plate (ProxiPlateTM, Perkin Elmer) and binding measured either with Octet NTA Biosensors or Octet GST Biosensors. Screening assays were performed to determine the optimum loading concentration and time for each binding pair to ensure that the probe was not saturated. All experiments were repeated three times, each time with newly prepared protein. Analysis and visualisation were performed using GraphPad Prism 10.0.2.

wt: wild type cells with Las17-GFP and Arc15-mCherry
lifetime, GFP alone [1]: 20 (3×) and 22 (4×) and 18 (2×) and 28 and 24 and 26 (2×) | lifetime, GFP and RFP [1]: 30 and 44 and 36 and 32 (4×) | lifetime, RFP [1]: 34 and 48 and 44 and 36 (3×) and 46

Sla1 SH3#3: SH3#3 (aa 354-413) (SKKRGIVQYDFMAESQDELTIKSGDKVYILDDKKSKDWWMCQLVDSGKSGLVPAQFIEPV; also: 15N-labelled)
binding to Las17 peptide spots [2]: strongest binding for peptides in proline tracts 1 and 3 | inhibition of actin polymerisation activity [3]: not

B1: Sla1 SH3#1 (aa 3-68) (domain or fragment, S. cerevisiae, UniProt P32790 3-68, looked up)
chain: VFLGIYRAVYAYEPQTPEELAIQEDDLLYLLQKSDIDDWWTVKKRVIGSDSEEPVGLVPSTYIEEA
notes: Sla1, S. cerevisiae, first SH3 domain, residues 3-68; also called Sla1 SH3 domain 1; source: E. coli, purified (GST fusion, GST removed with thrombin; His-tagged Sla1-SH3 domains were also made)
Kd [4]: 7.5 µM

B2: Sla1 SH3#1: Sla1 SH3#1 (aa 3-68) (protein)
chain: VFLGIYRAVYAYEPQTPEELAIQEDDLLYLLQKSDIDDWWTVKKRVIGSDSEEPVGLVPSTYIEEA
modifications: left off: GST, end not stated, kept
binding to Las17 peptide spots [2]: preference for sequences in the Las17 proline tracts 2 and 3 | inhibition of actin polymerisation activity [3]: about 80%

B3: Las17 peptide p1 (PP1 motif) (peptide)
peptide: RNNRPVPPPPPMRTTTEGSGVR
notes: Las17, S. cerevisiae, first PP motif; also called peptide 1; source: synthetic peptide (GenScript Biotech, UK)
Kd at site SH3#1 [5]: ~70 µM | Kd at site SH3#2 [5]: ~550 µM

B4: Las17 peptide p3 (PP3 motif) (peptide)
peptide: LPAQTGRRGPAPPPPPRASRPTP
notes: Las17, S. cerevisiae, third PP motif; also called peptide 3; source: synthetic peptide (GenScript Biotech, UK)
Kd at site SH3#1 [5]: ~24 µM | Kd at site SH3#2 [5]: ~190 µM

B5: GST-Sla1 SH3#1-3: GST-tagged Sla1 SH3#1-3 containing the predicted PH domain (protein, UniProt P32790 5-413, looked up, fragment)
chain: LGIYRAVYAYEPQTPEELAIQEDDLLYLLQKSDIDDWWTVKKRVIGSDSEEPVGLVPSTYIEEAPVLKKVRAIYDYEQVQNADEELTFHENDVFDVFDDKDADWLLVKSTVSNEFGFIPGNYVEPENGSTSKQEQAPAAAEAPAATPAAAPASAAVLPTNFLPPPQHNDRARMMQSKEDQAPDEDEEGPPPAMPARPTATTETTDATAAAVRSRTRLSYSDNDNDDEEDDYYYNSNSNNVGNHEYNTEYHSWNVTEIEGRKKKKAKLSIGNNKINFIPQKGTPHEWSIDKLVSYDNEKKHMFLEFVDPYRSLELHTGNTTTCEEIMNIIGEYKGASRDPGLREVEMASKSKKRGIVQYDFMAESQDELTIKSGDKVYILDDKKSKDWWMCQLVDSGKSGLVPAQFIEPV
modifications: GST tag
notes: GST-tagged Sla1 SH3#1-3 containing the predicted PH domain
liposome co-sedimentation ([6]; 20 μM Sla1, buffer B, room temperature 15 min, 250,000 × g): co-precipitates with liposomes | liposome co-sedimentation ([6]; - lipid, replicate 1): 0 | liposome co-sedimentation ([6]; - lipid, replicate 2): 11.5044 | liposome co-sedimentation ([6]; - lipid, replicate 3): 0 | liposome co-sedimentation ([6]; - lipid, replicate 4): 2.9 | liposome co-sedimentation ([6]; - lipid, replicate 5): 3 | liposome co-sedimentation ([6]; - lipid, replicate 6): 5

B6: Sla1 SH3 1&2-W108A: W108A mutation prevents proline motif binding by SH3#2 but not SH3#1 (protein, UniProt P32790 5-131, looked up, variant W108A)
chain: LGIYRAVYAYEPQTPEELAIQEDDLLYLLQKSDIDDWWTVKKRVIGSDSEEPVGLVPSTYIEEAPVLKKVRAIYDYEQVQNADEELTFHENDVFDVFDDKDADALLVKSTVSNEFGFIPGNYVEPEN
Kd [7]: 7.4 µM

B7: Sla1 SH3#3 (aa 354-413) (domain or fragment, S. cerevisiae, UniProt P32790 354-413, looked up)
chain: SKKRGIVQYDFMAESQDELTIKSGDKVYILDDKKSKDWWMCQLVDSGKSGLVPAQFIEPV
modifications: also: 15N-labelled
notes: Sla1, S. cerevisiae, third SH3 domain, residues 354-413; also called Sla1 SH3 domain 3; source: E. coli, purified (GST fusion, GST removed with thrombin; His-tagged Sla1-SH3 domains were also made); 15N-labelled for NMR
Kd [4]: 16 µM
